Among the data in paper PMC4895335 are binding values, retold here.

The data set deals with T1, Ms4022 (TetR family regulator) (Mycobacterium smegmatis mc2 155) (UniProt A0QZH0).
T1 sequence: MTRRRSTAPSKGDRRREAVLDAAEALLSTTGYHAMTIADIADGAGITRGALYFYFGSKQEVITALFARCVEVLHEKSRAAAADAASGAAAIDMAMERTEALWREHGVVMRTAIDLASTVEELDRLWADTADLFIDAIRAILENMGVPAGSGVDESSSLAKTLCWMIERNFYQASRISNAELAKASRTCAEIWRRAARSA
Put plainly: EMSA. The conditions noted are these: EMSA: 50 mM Tris-HCl pH 7.5, 10 mM MgCl2, 50 mM NaCl, 4 C 30 min, 5% native PAGE in 0.5x TBE at room temperature; footprinting: binding as in EMSA, DNase I at ….

As to “ACGCCGATACTTGACGGAGTGCTTATTTTTTTCGACACTGTGCTTATTGAGATGGCGGGGCATGGAGGCAGCGATGCGAACAATCTTGATCGCCGGAACGAGCGGCGACTTCCGGCGAGCATTCGCCGAGGCGGTTGCGCCTTGGCGTGCACACAGTCGCATCCCCGACCTCGCCGACGCCGCTGTCGGCCCATCCGGGAAGGACCATCCGTGACGAAATCCA (double strand) [Ms4022p s1]”, the binding result is listed as “binds”.
Turning to “GCCTTACGGCACAACGACTTCGGGCTGGCGGCCCGGCGTCGTCGCATCGCGCACGTCCGGTCGGACGCCCCCAGTCGGCCCCTCCGGACTAGGCGTCCACGCCGATACTTGACGGAGTGCTTATTTTTTTCGACACTGTGCTTATTGAGATGGCGGGGCATGGAGGCAGCGATGCGAACAATCTTGATCGCCGGAACGAGCGGCGACTTCCGGCGAGCATTCGCCGAGGCGGTT (double strand) [Ms4022p s2]”, the binding result is recorded as “binds”.
Then “GTCGATCTCCGTCGGGTCAACGGGCGAACTTCCCTGTCACGGCAGTCAGGTTAGCACGAATCCACACAGTGCTGATTTTTATCAGCTTGTTGTCGGCGACGCGGTCACCCGTTTCGGTCGCGAGGTGTCTGATCGGTCGCCATCGGTTATGGCCTTACGGCACAACGACTTCGGGCTGGCGGCCCGGCGTCGTCGCATCGCGCACGTCCGGTCGGACGCCCCCAGTCGGCCCCTCCGGACTAGGCGTCCACGCCGATACTTGACGGAGT (double strand) [Ms4022p s3]”, with “binds”.
